System: MS2 coat protein
Assay: apparent KD of MS2 coat protein; designed switch direction (-1 OFF switch, 1 ON switch): 1; higher = weaker reporter binding
In short: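 The apparent KD reported per design is the median over clusters of curve fits to normalised cluster fluorescence. The RNA switches were transcribed on Illumina chips by stalled E. coli RNA polymerase. SNAP-549-labelled MS2 coat protein was titrated from 0.7 or 1.5 nM, doubling up to 3 µM, in Tris-HCl pH 7.5 buffer containing KCl, MgCl2, BSA, DTT, tRNA and Tween-20, with no input, 200 uM small-molecule ligand, or an oligonucleotide input.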

[1] = Eterna round: R95, input ligand: FMN 200 uM
[2] = Eterna round: R95, input ligand: microRNA oligo, concentration not stated
[3] = Eterna round: R95, input ligand: none
[4] = input ligand: microRNA oligo, concentration not stated

Row | Sequence | apparent KD of MS2 coat protein [1] [nM] | apparent KD of MS2 coat protein [2] [nM] | apparent KD of MS2 coat protein [3] [nM] | apparent KD of MS2 coat protein (input ligand: FMN 200 uM) [nM] | apparent KD of MS2 coat protein [4] [nM] | apparent KD of MS2 coat protein (input ligand: none) [nM]
1 | AGCUAUCGAAAACGAUAGCAAAAGCAUGUACAUGAGGAUCACCCAUGUUAUGUACAAGCUUUUUGCUCGUCUUAAAA [Zipper 23 - 11] (puzzle: Sensor for hsa-mir-208a) | 326 | 12 | 308 |  |  | 
2 | AGCUAUCGAAAACGAUAGCAGAAGCAUGUACAUGAGGAUCACCCAUGUCAUGUACAAGCUUUUUGCUCGUCUUAAAA [Zipper 23 - 1] (puzzle: Sensor for hsa-mir-208a) | 360 | 17.8 | 703 |  |  | 
3 | AGCUAUCGAAAACGAUAGCAUAAGCUUGGACAUGAGGAUCACCCAUGUCAUGUACAAGCUUUUUGCUCGUCUUAAAA [JL zipper 29] (Eterna round: R96, puzzle: Sensor for hsa-mir-208a) |  |  |  | 32.3 | 11.9 | 34.5
4 | AGCUAUUAAUCAGGAUAUAGGGACAUGAGGAUCACCCAUGUAUAAAUGAUGAAAUGUGGUCACCUCUAGAAGGGAUUACUAACA [SameState NG2 #43] (Eterna round: R96, puzzle: Same State NG 2) |  |  |  | 42.7 | 29 | 40.4
5 | AGCUAUUAAUCAGGAUAUGGUGACAUGAGGAUCACCCAUGUAUAGAUGAUUAAAUGUGGUCUAUACCAGAAGGGAUUACUAACA [SameState NG2 #52] (Eterna round: R96, puzzle: Same State NG 2) |  |  |  | 55.5 | 247 | 356
6 | AGCUAUUACGAAGGAUAUUGUGACAUGAGGAUCACCCAUGUCUUCAUGAUUUAUUGUGAUCACGUCGAGAAGGUUGUACUAACA [SameState NG2 #28] (Eterna round: R96, puzzle: Same State NG 2) |  |  |  | 50.5 | 56.3 | 57.6
7 | AGCUAUUACGAAGGAUAUUGUGACAUGAGGAUCACCCAUGUUUGCAUGAUUAAUUGUGAUCACGUCGAGAAGGUUGUACUAACA [SameState NG2 #31] (Eterna round: R96, puzzle: Same State NG 2) |  |  |  | 26.2 | 20.9 | 29.5
8 | AGCUAUUACGAAGGAUAUUGUGACAUGAGGAUCACCCAUGUUUUCAUGAUUAAUUGUGAUCACGUCGAGAAGGUUGUACUAACA [SameState NG2 #30] (Eterna round: R96, puzzle: Same State NG 2) |  |  |  |  | 43 | 
9 | AGCUUACAUGAGGAUCACCCAUGUAGGAAGUACAUAGGAUAUCACCAAAUGGUCGACAUGUGAGAAGGGUGGAAGU [Usarle] (puzzle: Same State 1) | 16.2 | 19.4 | 13.5 |  |  | 
10 | AGCUUUUAAUUAGGAUAUGGUCACAUGAGGAUCACCCAUGUAACGAUGAUACGAUGUGGUCAAGACUAGAAGGGAUCGCUAACA [SameState NG2 #70] (Eterna round: R96, puzzle: Same State NG 2) |  |  |  | 150 | 82.9 | 113
11 | AGGAAGGAGACUGAGGAUAUCGUUGAGAGGACAUGAGGAUCACCCAUGUGUAUAGGAUUGGAGAACGAGAAGGCAGAGGAGUGGA [JR_SS2_Sub046] (puzzle: Same State 2) | 50 | 48.5 | 72.4 |  |  | 
12 | AGGCAAGCUUUUUGCUUGUAUGCAGGAGAACAUGAGGAUCACCCAUGUCUUGGAGGUGUUGAAAAUAAGAGAAUGCA [JR_SHM208A_Sub006] (puzzle: Sensor for hsa-mir-208a) | 63.9 | 72.8 | 93.9 |  |  | 
13 | AGGCCACCGGGAGGAUAUGGCACCUAUAUGGUGCCAGAAGGCUCAACAUGAGGAUCACCCAUGUGGGUGGGUUCUAAUGAACAA [Fiskers NG1 - 1] (Eterna round: R96, puzzle: Same State NG 1) |  |  |  | 69.1 | 41.7 | 46.7
14 | AGGCUCAGAGCAGGAUAUAUGCGAUCACAUGAGGAUCACCCAUGUCUCGAGCUUCGGCUCGAGGCAUAGAAGGGCUCUGAGCCA [SSNG2/4-B1] (Eterna round: R96, puzzle: Same State NG 2) |  |  |  | 18.9 | 28.6 | 51.8
15 | AGGGAGGAAGCUGAGGAUAUCGUAAGGAGGACAUGAGGAUCACCCAUGUGUGUGGAAUUGGAGGACGAGAAGGCAGAGGAGUGGG [JR_SS2_Sub054] (Eterna round: R96, puzzle: Same State 2) |  |  |  | 40.5 | 35 | 38.4
16 | AGGGAGGAAGCUGAGGAUAUCGUAAGGAGGACAUGAGGAUCACCCAUGUGUGUGGAAUUGGAGGACGAGAAGGCAGAGGAGUGGG [JR_SS2_Sub054] (puzzle: Same State 2) | 32.9 | 27.1 | 28.9 |  |  | 

Row | Sequence | apparent KD of MS2 coat protein [1] [nM] | apparent KD of MS2 coat protein [2] [nM] | apparent KD of MS2 coat protein [3] [nM] | apparent KD of MS2 coat protein (input ligand: FMN 200 uM) [nM] | apparent KD of MS2 coat protein [4] [nM] | apparent KD of MS2 coat protein (input ligand: none) [nM]
17 | AGGUAACAUGAGGAUCACCCAUGUAAGGUGAACGUAGGAUAUCGAGGAGGUAGAGUAGGUCGAGAAGGACGAGAAG [JR_SS1_Sub094] (puzzle: Same State 1) | 139 | 100 | 127 |  |  | 
18 | AGGUAACAUGAGGAUCACCCAUGUACCAAUAAUGCAGGAUAUCGACACGAAAAUACGUGUCGAGAAGGGCAUGAAA [SS1 MT 22] (Eterna round: R96, puzzle: Same State 1) |  |  |  | 10.3 | 9.09 | 12.5
19 | AGGUACAACGGAGGAUAUAAUAGUCUAUAGACGUUAGAAGGCCGGGCCUUCACAUGAGGAUCACCCAUGUCUCUGGAGGCGCCU [Eternabot solution 11] (Eterna round: R96, puzzle: Same State NG 1) |  |  |  |  | 16.8 | 
20 | AGUAGUGUAACAUGAGGAUCACCCAUGUAUGUAUAUGUAACCUAGGAUAUGGAGGUUAUGUUUGACCAGAAGGAGGAUUGUUUA [JR_SSNG3_Sub042] (Eterna round: R96, puzzle: Same State NG 3) |  |  |  | 29.7 | 28.7 | 33.7
21 | AGUAGUUUAACAUGAGGAUCACCCAUGUAUCUAUCUGUAACCUAGGAUAUGGGCGUUGUAUUUAACCAGAAGGAGGAUCGUUUA [JR_SSNG3_Sub047] (Eterna round: R96, puzzle: Same State NG 3) |  |  |  | 17.8 | 22.5 | 29
22 | AGUAGUUUAACAUGAGGAUCACCCAUGUAUGUAUAUGUAACCUAGGAUAUGGAGGUUUUAUUUAACCAGAAGGAGGAUUGUUUA [JR_SSNG3_Sub043] (Eterna round: R96, puzzle: Same State NG 3) |  |  |  | 18.3 | 15.8 | 20.7
23 | AGUAUACAUGAGGAUCACCCAUGUCAACGUAGUCGAGGAUAUGGGCAGCCGUGAGGCGUACUAGAAGGCGAAGAGA [Mat - Same State 1 - Mod of JL - D7] (puzzle: Same State 1) | 48.9 | 135 | 101 |  |  | 
24 | AGUCCACGCUGACGUGGACAAAAGCAUGUACAUGAGGAUCACCCAUGUCAUGUACAAGCUUUUUGCUCGUCUUAAAA [Mat - hsa-mir-208a - Mod of JL - D17] (Eterna round: R96, puzzle: Sensor for hsa-mir-208a) |  |  |  | 346 | 13.2 | 447
25 | AGUCCACGCUGACGUGGACAAAAGCAUGUACAUGAGGAUCACCCAUGUCAUGUACAAGCUUUUUGCUCGUCUUAAAA [Mat - hsa-mir-208a - Mod of JL - D17] (puzzle: Sensor for hsa-mir-208a) | 543 | 14.7 | 1680 |  |  | 
26 | AGUCCACGCUGACGUGGACAAAAGCAUGUACAUGAGGAUCACCCAUGUCAUGUACAAGCUUUUUGCUCGUCUUAAUA [Mat - hsa-mir-208a - Mod of JL - D43] (puzzle: Sensor for hsa-mir-208a) | 478 | 14.9 | 549 |  |  | 
27 | AGUCCAGCCAGAGCUGGACAAAAGCAUGUACAUGAGGAUCACCCAUGUUCAUGUACAAGCUUUUUGCUCGUCUUAAG [Mat - hsa-mir-208a - Mod of JL - 64] (puzzle: Sensor for hsa-mir-208a) | 583 | 15.9 | 547 |  |  | 
28 | AGUCCAGCCUGAGCUGGACAAAAGCAUGUACAUGAGGAUCACCCAUGUCAUGUACAAGCUUAUUGCUCGUCUUAAUA [Mat - hsa-mir-208a - Mod of JL - D40] (puzzle: Sensor for hsa-mir-208a) | 226 | 16.7 | 251 |  |  | 
29 | AGUCCAGCCUGAGCUGGACAAAAGCAUGUACAUGAGGAUCACCCAUGUCAUGUACAAGCUUUUAGCUCGUCUUAAAA [Mat - hsa-mir-208a - Mod of JL - D14] (puzzle: Sensor for hsa-mir-208a) | 455 | 14.6 | 501 |  |  | 
30 | AGUCCAGCCUGAGCUGGACAAAAGCAUGUACAUGAGGAUCACCCAUGUCAUGUACAAGCUUUUUGCUCGUAUUAAAA [Mat - hsa-mir-208a - Mod of JL - D9] (puzzle: Sensor for hsa-mir-208a) | 362 | 15.4 | 574 |  |  | 
31 | AGUCCAGCCUGAGCUGGACAAAAGCAUGUACAUGAGGAUCACCCAUGUCAUGUACAAGCUUUUUGCUCGUCUAAAAG [Mat - hsa-mir-208a - Mod of JL - D7] (puzzle: Sensor for hsa-mir-208a) | 272 | 17.6 | 406 |  |  | 

Source: the supplement of paper PMC9170038
